Data on three molecules can be found in article PMC6494913 (Nature Communications, 2019).

Test [1] concerns the target KirBac1.3-GIRK1 chimeric protein (GIRK chimera) in MSP1E3 nanodiscs (mouse | Burkholderia xenovorans) (UniProt P63250). Put plainly: NMR titration; 1H-13C HMQC (methyl-TROSY) of 11 μM Gα[ILVA]βγ with or without 22 μM (2 eq.) GIRK chimera-nanodiscs; 20 °C; 20 mM HEPES-NaOH pH 7.0, 150 mM KCl, 0.5 mM GDP, 0.1 mM TCEP; signal intensity reductions; apparent Kd estimated.
Test [2] deals with NLuc-tagged GIRK (GIRK1/GIRK2-Luc) (human) (UniProt P48549). In words: FRET or BRET; agonist-induced BRET in living HEK293T cells between Venus-Gβγ (acceptor) and GRK-Luc or GIRK-Luc (donor); co-expressed GPCR (DOR or D2R), PTX S1 and a PTX-insensitive Gα (C351A); agonist 10 μM, then antagonist; PBS with 0.5 mM MgCl2 and 0.1% glucose; read 3 min after ligand. On the technique in general: In BRET a luciferase serves as donor, and the signal depends on an acceptor being close.

The target in test [3] is T1, Gβγ dimer (human Gβ1 and His6-tagged human Gγ2 (C68S)) (human, UniProt P62873 1-340; P59768 1-71, C68S).
T1 construct: G protein β1 subunit (Gβ1), human; G protein γ2 subunit (Gγ2), human; also called [non-labeled]βγ
In words: SEC; purified Gα and Gβγ mixed with a slight excess of Gβγ; Gαβγ isolated by gel filtration on Superdex 200. The settings on record: both partners purified. In general terms: SEC sorts molecules by how far they enter the pores of the column.

Sequence of NLuc-tagged GIRK (GIRK1/GIRK2-Luc) (human) (P48549 whole entry, chain 1 of 2): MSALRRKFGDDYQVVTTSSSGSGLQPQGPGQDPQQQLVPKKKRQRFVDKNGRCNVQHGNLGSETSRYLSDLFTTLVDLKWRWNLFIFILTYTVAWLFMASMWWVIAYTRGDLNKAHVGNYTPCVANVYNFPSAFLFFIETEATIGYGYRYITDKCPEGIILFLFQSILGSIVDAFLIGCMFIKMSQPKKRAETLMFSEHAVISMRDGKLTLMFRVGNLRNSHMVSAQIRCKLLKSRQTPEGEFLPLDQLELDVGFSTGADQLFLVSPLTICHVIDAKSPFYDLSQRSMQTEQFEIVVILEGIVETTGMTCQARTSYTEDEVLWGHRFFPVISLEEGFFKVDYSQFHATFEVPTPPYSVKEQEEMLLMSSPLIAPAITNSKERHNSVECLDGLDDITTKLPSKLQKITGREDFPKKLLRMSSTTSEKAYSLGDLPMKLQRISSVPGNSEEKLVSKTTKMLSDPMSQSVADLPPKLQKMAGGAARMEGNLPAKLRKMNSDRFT
Sequence of NLuc-tagged GIRK (GIRK1/GIRK2-Luc) (human) (P48051 whole entry, chain 2 of 2, further chain): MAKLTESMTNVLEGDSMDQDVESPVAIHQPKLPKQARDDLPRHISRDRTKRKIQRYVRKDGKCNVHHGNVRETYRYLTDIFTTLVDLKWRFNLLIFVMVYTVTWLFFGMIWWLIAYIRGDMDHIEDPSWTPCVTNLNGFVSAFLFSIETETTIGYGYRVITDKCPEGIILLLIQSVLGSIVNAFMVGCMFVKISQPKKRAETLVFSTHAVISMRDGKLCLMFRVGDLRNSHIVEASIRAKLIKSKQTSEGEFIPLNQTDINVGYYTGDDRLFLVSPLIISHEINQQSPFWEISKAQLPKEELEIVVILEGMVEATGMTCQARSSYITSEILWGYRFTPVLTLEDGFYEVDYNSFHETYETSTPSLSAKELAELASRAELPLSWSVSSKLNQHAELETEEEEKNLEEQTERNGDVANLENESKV

“Gαi3βγ heterotrimer (Gαi3[ILVA] complexed with non-labeled Gβ1γ2(C68S)), GDP-bound (from UniProt P08754 1-354; P62873 1-340; P59768 1-71)”: the Kd in test [1] was over 200 µM.

In test [2], “Venus-tagged Gβγ (Venus 156–239-Gβ1 with Venus 1–155-Gγ2) (from UniProt P62873 1-340; P59768 1-71) (complex)” showed a specificity factor (ΔBRET GIRK/ΔBRET GRK), with D2R and Gαi3 of 0.303; a specificity factor (ΔBRET GIRK/ΔBRET GRK), with D2R and Gαiqi of 0.157; a specificity factor (ΔBRET GIRK/ΔBRET GRK), with D2R and Gαqi5 of 0.091; a specificity factor (ΔBRET GIRK/ΔBRET GRK), with D2R and Gαqiqi5 of 0.236. Also, in test [2], the specificity factor (ΔBRET GIRK/ΔBRET GRK), with DOR and Gαi3 was found to be 0.286; the specificity factor (ΔBRET GIRK/ΔBRET GRK), with DOR and Gαiqi is 0.148; the specificity factor (ΔBRET GIRK/ΔBRET GRK), with Gαi3-q(αA) came to 0.159; the specificity factor (ΔBRET GIRK/ΔBRET GRK), with Gαi3-q(αB) is 0.248. In test [2], this molecule came in with a specificity factor (ΔBRET GIRK/ΔBRET GRK), with Gαi3-q(αE) of 0.249.

B1: Gαiqi (chimeric Gα: GTPase domain of Gαi3, helical domain of Gαq), purified (other, human, UniProt P08754 1-62, looked up)
chain: MGCTLSAEDKAAVERSKMIDRNLREDGEKAAKEVKLLLLGAGESGKSTIVKQMKIIHEDGYSDEDKRGFTKLVYQNIFTAMQAMIRAMDTLKIPYKYEHNKAHAQLVREVDVEKVSAFENPYVDAIKSLWNDPGIQECYDRRREYQLSDSTKYYLNDLDRVADPAYLPTQQDVLRTRVKTTGIVETHFTFKDLYFKMFDVGGQRSERKKWIHCFEGVTAIIFCVALSDYDLVLAEDEEMNRMHESMKLFDSICNNKWFTETSIILFLNKKDLFEEKIKRSPLTICYPEYTGSNTYEEAAAYIQCQFEDLNRRKDTKEIYTHFTCATDTKNVQFVFDAVTDVIIKNNLKECGLY
notes: Gαi3, human, GTPase domain residues 1-62; Gαq, human, helical domain residues 69-180; Gαi3, human, GTPase domain residues 176-354; also called Gαiqi[ILVA]; source: E. coli BL21-CodonPlus (DE3)-RP, purified in the same way as the wild-type Gαi3; not shown: His10, N-terminal, cleaved
Regarding B1, in test [3], the binding result is “binds”.
